Measured values reported in publication PMC9693643, “Aminoquinolones and Their Benzoquinone Dimer Hybrids as Modulators of Prion Protein Conversion” (Molecules, 2022).

Target: the molecule itself
Assay: RT-QuIC (seeded fibril conversion, thioflavin T fluorescence)

B1: murine recombinant full-length prion protein (PrP23-231) (natural protein)
chain: not shown
notes: also called recombinant PrP; PrP23-231 fibril seed
binding result: binds
